According to patent US20220112295A1 (Novo Nordisk, published 2022):

T1: native human CD30L expressed on Ramos cells (human, UniProt P32971 1-234)
T1 sequence: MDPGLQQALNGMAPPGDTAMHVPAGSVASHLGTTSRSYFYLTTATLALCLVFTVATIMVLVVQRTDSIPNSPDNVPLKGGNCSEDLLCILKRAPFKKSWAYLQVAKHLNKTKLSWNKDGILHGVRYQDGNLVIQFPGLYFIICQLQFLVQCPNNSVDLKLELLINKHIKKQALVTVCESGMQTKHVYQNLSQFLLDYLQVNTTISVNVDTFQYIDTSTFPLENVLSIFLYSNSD

T2: cyno CD30L LZ (cynomolgus monkey, UniProt A0A7N9CVX7 63-234)
T2 sequence: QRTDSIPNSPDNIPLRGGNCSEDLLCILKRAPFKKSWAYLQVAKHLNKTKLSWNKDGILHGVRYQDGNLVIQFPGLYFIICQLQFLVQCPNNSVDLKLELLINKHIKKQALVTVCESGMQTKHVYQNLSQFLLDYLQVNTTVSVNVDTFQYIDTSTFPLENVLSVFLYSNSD

T3: recombinant human CD30L isoleucine zipper (huCD30L LZ) (human, UniProt P32971 63-234)
T3 construct: also called huCD38L LZ; CD30L LZ Hu; not shown: N-terminal isoleucine zipper motif (leucine zipper with leucines replaced by isoleucines)
T3 sequence: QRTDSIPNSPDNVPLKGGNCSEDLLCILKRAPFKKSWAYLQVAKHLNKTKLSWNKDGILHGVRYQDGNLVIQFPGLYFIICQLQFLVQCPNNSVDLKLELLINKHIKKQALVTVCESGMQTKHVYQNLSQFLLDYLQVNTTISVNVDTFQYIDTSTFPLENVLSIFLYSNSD

T4: FLAG-hCD30L-EC (N153Q) treated with PNGaseF (human)
T4 construct: also called FLAG-hCD30L-EC + PNGaseF
T4 chain: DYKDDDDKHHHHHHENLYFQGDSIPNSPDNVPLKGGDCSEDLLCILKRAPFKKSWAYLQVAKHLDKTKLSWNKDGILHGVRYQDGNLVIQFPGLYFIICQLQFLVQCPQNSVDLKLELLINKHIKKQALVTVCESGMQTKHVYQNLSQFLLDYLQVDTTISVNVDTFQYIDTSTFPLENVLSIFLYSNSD


Columns and labels:
[1] = target: T1, native human CD30L expressed on Ramos …; assay: cell-based or functional assay
cyno CD30L LZ = target: T2, cyno CD30L LZ; assay: cell-based or functional assay
[2] = target: T3, recombinant human CD30L isoleucine …; assay: blocking of human CD30L LZ binding to K299 cells (CD30)
[3] = target: T3, recombinant human CD30L isoleucine …; assay: cell-based or functional assay
[4] = target: T4, FLAG-hCD30L-EC (N153Q) treated with …; assay: HX-MS, 6 uM hCD30L with 6.6 uM mAb

Binder | IC50, inhibition of IL-8 release (K299/Ramos dual cell assay) [1] [nM] | IC50, inhibition of IL-8 release (K299 single cell assay with cyno CD30L LZ) (cyno CD30L LZ) [nM] | IC50 [2] [nM] | IC50, inhibition of IL-8 release (K299 single cell assay with huCD30L LZ) [3] [nM] | binding result [4]
Antibody A1 (antibody, V domains shown, also called mAb A1; Antibody A1 IgG2) VH: QVQLQESGPGLVKPSETLSLTCTVSGGSISSYIWSWIRQPAGKGLEWIGRIYASGNTNYNPSLKSRVTISVDTSKNQFSLKLSSMTAADTAVYYCARDYRVAGTYYYYYGLDVWGQGTTVTVSS VL: QSALTQPASVSGSPGQSITISCTGTSSDVGVYDYVSWYQQHPGKAPKLMIYEVSNRPSGVSNRFSGSKSGNTASLTISGLQTEDEADYYCSSYTSRSTWVFGGGTKLTVL | 0.033 | 2.4 | 1.4 | 2.7 | binds
Antibody A1 IgG1 (antibody, V domains shown) VH: QVQLQESGPGLVKPSETLSLTCTVSGGSISSYIWSWIRQPAGKGLEWIGRIYASGNTNYNPSLKSRVTISVDTSKNQFSLKLSSMTAADTAVYYCARDYRVAGTYYYYYGLDVWGQGTTVTVSS VL: QSALTQPASVSGSPGQSITISCTGTSSDVGVYDYVSWYQQHPGKAPKLMIYEVSNRPSGVSNRFSGSKSGNTASLTISGLQTEDEADYYCSSYTSRSTWVFGGGTKLTVL | 0.032 | 1.5 | – | – | –
